In US20120316071A1 (published 2012):

Experiments:
[1] = molecular target: T1, Recombinant Human DLL4 (R&D Systems Cat#1506-D4/CF) (human, UniProt Q9NR61 27-524); test: ELISA titration, 3-fold dilutions from 20 nM Fab
T1 construct: bought recombinant protein; also called rHuman DLL4; delta-like protein 4

[2] = molecular target: T2, rHuman P-Cadherin/Fc Chimera, CF (R&D Systems Cat#861-PC) (human, UniProt P22223 108-654); test: ECL multispot (MSD) binding assay, antigen spotted on plate, Fab 0.04 uM;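 also: purified Fab incubated 1 h at 20 °C on antigen spots, detected via TAG-labelled antibody, ECL read against each well's blank, with signal-to-blank of at least 4 scored as binder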
T2 construct: Bought recombinant protein; Fc part of the bought chimera not given

[3] = molecular target: T3, rHuman Erythropoietin R/Fc Chimera, CF (R&D Systems Cat#963-ER) (human, UniProt P19235 25-250); test: as above
T3 construct: Bought recombinant protein; also called EPO R; EPO R/Fc; Fc part of the bought chimera not given
T3 sequence (looked up): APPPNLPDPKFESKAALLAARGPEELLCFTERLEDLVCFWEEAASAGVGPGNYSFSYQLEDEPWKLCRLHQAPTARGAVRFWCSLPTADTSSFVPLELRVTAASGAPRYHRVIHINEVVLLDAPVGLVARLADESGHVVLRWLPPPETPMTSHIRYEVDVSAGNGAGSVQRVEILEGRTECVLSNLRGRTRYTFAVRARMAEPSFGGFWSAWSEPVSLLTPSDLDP

[4] = molecular target: T4, Recombinant Human DLL4 (R&D Systems Cat#1506-D4/CF) (human, UniProt Q9NR61 27-524); test: as above
T4 construct: Bought recombinant protein; also called delta-like protein 4; rHuman DLL4

[5] = molecular target: T5, rHuman CD44/Fc Chimera, CF (R&D Systems Cat#3660-CD) (human, UniProt P16070 21-220); test: as above
T5 construct: Bought recombinant protein; Fc part of the bought chimera not given

[6] = molecular target: T6, Recombinant Human DLL4 (R&D Systems Cat#1506-D4/CF) (human, UniProt Q9NR61 27-524); test: ELISA, DLL4 coated on plate, Fab at 100 nM, absorbance at 450 nm
T6 construct: also called delta-like protein 4; rHuman DLL4

B1: Fab H:APFF LTH & L6_IGKJ1*01 S28N/S30D/S31H (NDH) (Fab, V domains shown)
VH: QVQLVQSGAEVKKPGASVKVSCKASGYTFTSYYMHWVRQAPGQGLEWMGIILPTGHSTSYAQKFQGRVTMTRDTSTSTVYMELSSLRSEDTAVYYCAREEYAPFSAEYFQFWGQGTLVTVSS
VL: EIVLTQSPATLSLSPGERATLSCRASQNVDHYLAWYQQKPGQAPRLLIYDASNRATGIPARFSGSGSGTDFTLTISSLEPEDFAVYYCQQRSNWPPWTFGQGTKVEIKR
notes: Fab; also called H:APFF LTH & L:NDH
[1]
  fold binding affinity against the antibody mutants with heavy chain H:APFF ALTH: ~10 fold

B2: Fab H:APFF LTH & L6_IGKJ1*01 S28N/S30D/S31H S52L/A55G (NDH LG) (Fab, V domains shown)
VH: QVQLVQSGAEVKKPGASVKVSCKASGYTFTSYYMHWVRQAPGQGLEWMGIILPTGHSTSYAQKFQGRVTMTRDTSTSTVYMELSSLRSEDTAVYYCAREEYAPFSAEYFQFWGQGTLVTVSS
VL: EIVLTQSPATLSLSPGERATLSCRASQNVDHYLAWYQQKPGQAPRLLIYDALNRGTGIPARFSGSGSGTDFTLTISSLEPEDFAVYYCQQRSNWPPWTFGQGTKVEIKR
notes: Fab; also called H:APFF LTH & L:NDH LG
[1]
  fold binding affinity against the antibody mutants with heavy chain H:APFF ALTH: ~10 fold

B3: Fab VH5-51_IGHD5-18*01>3_IGHJ4*01 G100K/G104T (H:KT) & V3-4_IGLJ1*01 G95A (Fab, V domains shown)
VH: EVQLVQSGAEVKKPGESLKISCKGSGYSFTSYWIGWVRQMPGKGLEWMGIIYPGDSDTRYSPSFQGQVTISADKSISTAYLQWSSLKASDTAMYYCARRKYSYTYDYFDYWGQGTLVTVSS
VL: QTVVTQEPSFSVSPGGTVTLTCGLSSGSVSTSYYPSWYQQTPGQAPRTLIYSTNTRSSGVPDRFSGSILGNKAALTITGAQADDESDYYCVLYMASGISYVFGTGTKVTVL
notes: Fab; Expressed from Plasmid A (CH1, His6 and Flag tags) and Plasmid E (lambda CL); also called KT & G95A
[2]
  ECL signal: 345
[3]
  ECL signal: 637
[4]
  ECL signal: 10400
[5]
  ECL signal: 657

B4: Fab VH5-51_IGHD5-18*01>3_IGHJ4*01 G100K/G104T G24T/S28R/G35V (H:KT TRV) & V3-4_IGLJ1*01 S96E (Fab, V domains shown)
VH: EVQLVQSGAEVKKPGESLKISCKTSGYRFTSYWIVWVRQMPGKGLEWMGIIYPGDSDTRYSPSFQGQVTISADKSISTAYLQWSSLKASDTAMYYCARRKYSYTYDYFDYWGQGTLVTVSS
VL: QTVVTQEPSFSVSPGGTVTLTCGLSSGSVSTSYYPSWYQQTPGQAPRTLIYSTNTRSSGVPDRFSGSILGNKAALTITGAQADDESDYYCVLYMGEGISYVFGTGTKVTVL
notes: Tested as Fab expressed in E. coli
[6]
  ELISA Signal-blank (100 nM Fab): 0.439

B5: Fab VH5-51_IGHD5-18*01>3_IGHJ4*01 G100K/G104T G24T/S28R/G35V (H:KT TRV) & V3-4_IGLJ1*01 S96L (Fab, V domains shown)
VH: EVQLVQSGAEVKKPGESLKISCKTSGYRFTSYWIVWVRQMPGKGLEWMGIIYPGDSDTRYSPSFQGQVTISADKSISTAYLQWSSLKASDTAMYYCARRKYSYTYDYFDYWGQGTLVTVSS
VL: QTVVTQEPSFSVSPGGTVTLTCGLSSGSVSTSYYPSWYQQTPGQAPRTLIYSTNTRSSGVPDRFSGSILGNKAALTITGAQADDESDYYCVLYMGLGISYVFGTGTKVTVL
notes: as for B4
[6]
  ELISA Signal-blank (100 nM Fab): 0.355

B6: Fab VH5-51_IGHD5-18*01>3_IGHJ4*01 G100K/G104T G24T/S28R/G35V (H:KT TRV) & V3-4_IGLJ1*01 S96M (Fab, V domains shown)
VH: EVQLVQSGAEVKKPGESLKISCKTSGYRFTSYWIVWVRQMPGKGLEWMGIIYPGDSDTRYSPSFQGQVTISADKSISTAYLQWSSLKASDTAMYYCARRKYSYTYDYFDYWGQGTLVTVSS
VL: QTVVTQEPSFSVSPGGTVTLTCGLSSGSVSTSYYPSWYQQTPGQAPRTLIYSTNTRSSGVPDRFSGSILGNKAALTITGAQADDESDYYCVLYMGMGISYVFGTGTKVTVL
notes: as for B4
[6]
  ELISA Signal-blank (100 nM Fab): 0.358

B7: Fab VH5-51_IGHD5-18*01>3_IGHJ4*01 G100K/G104T G24T/S28R/G35V (H:KT TRV) & V3-4_IGLJ1*01 S96P (Fab, V domains shown)
VH: EVQLVQSGAEVKKPGESLKISCKTSGYRFTSYWIVWVRQMPGKGLEWMGIIYPGDSDTRYSPSFQGQVTISADKSISTAYLQWSSLKASDTAMYYCARRKYSYTYDYFDYWGQGTLVTVSS
VL: QTVVTQEPSFSVSPGGTVTLTCGLSSGSVSTSYYPSWYQQTPGQAPRTLIYSTNTRSSGVPDRFSGSILGNKAALTITGAQADDESDYYCVLYMGPGISYVFGTGTKVTVL
notes: as for B4
[6]
  ELISA Signal-blank (100 nM Fab): 0.813
